Tests used:
Type in all cases: biochemical
Design in all cases: key: +: Detected; −: Not detected
[1] = Synthesis of N-acylamino acids from various fatty acids using purified acylamino acid synthetase, UPLC-MS detection
Method: 0.1 mL of a reaction solution containing 50 mM Tris-HCl, 5 mM amino acid, 5 mM sodium fatty acid (3 mM of sodium palmitate or sodium stearate), 10 mM ATP, 10 mM MgCl2, 1 mM DTT, 200 μg/mL of the purified enzyme, pH 8.0 was shaken at 25° C. for 24 hours. When sodium palmitate or sodium stearate was used, methanol at a final concentration of 10% (v/v) was contained in the reaction solution. As the amino acid, L-Asp was used in AtGH3-6, OsGH3-8, AtGH3-5, AtGH3-12, L-Ile was used in AtJAR1, L-Ala was used in AtGH3-10, SsGH3, L-Glu was used in AtGH3-17, Gly was used in CfHP, L-Lys was used in PsIAAL, and L-Cys was used in PaHP. After completion of the reaction, 0.4 mL of the reaction stop solution (1% (v/v) phosphoric acid, 75% (v/v) methanol) was added, and the mixture was filtrated through the filter followed by being subjected to the UPLC-MS analysis to detect a signal of a molecular weight corresponding to the N-acylamino acid.
The condition for the UPLC-MS analysis is as follows.
(§1) Apparatus: ACQUITY UPLC (Waters)
Column: ACQUITY UPLC BEH C18 1.7 μm 2.1×100 mm Column (Waters), mobile phase A: 0.1% formic acid; mobile phase B: acetonitrile
• Flow rate: 0.6 mL/minute • Injection amount: 2 μL • Column temperature: 40° C. • Ionization method: ESI-negative
As a result of the UPLC-MS analysis, the signal of the molecular weight corresponding to the appropriate N-acylamino acid was confirmed in the reaction solution containing the enzyme in combination with sodium fatty acid shown in Table 7 below.

[2] = Synthesis of N-caprinoyl-amino acid derivative, N-caprinoyl-D-amino acid and N-caprinoyl-peptide using purified acylamino acid synthetase, UPLC-MS detection; conditions: +ATP
Method: 0.2 mL of a reaction solution containing 50 mM Tris-HCl, 5 mM amino acid derivative or D-amino acid or peptide, 5 mM sodium caprate, 10 mM ATP, 10 mM MgCl2, 1 mM DTT, 50 μg/mL of the purified enzyme, pH 8.0 was incubated at 25° C. for 24 hours. After completion of the reaction, 0.8 mL of the reaction stop solution (1% (v/v) phosphoric acid, 75% (v/v) methanol) was added, and the mixture was filtrated through the filter followed by being subjected to the UPLC-MS analysis to detect a signal of a molecular weight corresponding to an N-caprinoyl-amino acid derivative, an N-caprinoyl-amino acid or an N-caprinoyl-peptide. A condition for the UPLC-MS analysis is as described in Example 2.
As a result of the UPLC-MS analysis, the signal of the molecular weight corresponding to the N-caprinoyl-amino acid derivative, or N-caprinoyl-amino acid, or N-caprinoyl-peptide was confirmed in the reaction solution containing the enzyme in combination with the amino acid derivative or the D-amino acid or the peptide shown in Table 4 below.

[3] = Synthesis of N-caprinoylamino acid using purified acylamino acid synthetase, UPLC-MS detection; conditions: +ATP
Method: 2.0 mL of a reaction solution containing 50 mM Tris-HCl, 5 mM amino acid, 5 mM sodium caprate, 10 mM ATP, 10 mM MgCl2, 1 mM DTT, 50 μg of the purified enzyme, pH 8.0 was incubated at 25° C. for 24 hours. After completion of the reaction, 0.8 mL of a reaction stop solution (1% (v/v) phosphoric acid, 75% (v/v) methanol) was added, and the mixture was filtrated through a filter followed by being subjected to the UPLC-MS analysis to detect a signal of a molecular weight corresponding to an N-caprinoyl amino acid.
A UPLC-MS analysis condition is as follows.
as §1
• Column: ACQUITY UPLC BEH C18 1.7 2.1×100 mm Column (Waters) • Mobile phase A: 0.1% formic acid • Mobile phase B: acetonitrile Gradient
• Flow rate: 0.6 mL/min • Injection amount: 2 μL • Column temperature: 40° C. • Ionization method: ESI-negative
As a result of the UPLC-MS analysis, the signal of the molecular weight corresponding to the N-caprinoyl amino acid was confirmed in the reaction solution combining the enzyme and the amino acid shown in Table 3 below.

B1: AtGH3-10: GH3-10 from Arabidopsis thaliana, His-tagged (protein, listed as Arabidopsis thaliana)
chain: METVEAGHDDVIGWFEHVSENACKVQSETLRRILELNSGVEYLRKWLGTVDVEKMDDYTLETLFTSLVPIVSHADLDPYIQRIADGETSPLLTQEPITVLSLSSGTTEGRQKYVPFTRHSAQTTLQIFRLSAAYRSRFYPIREGGRILEFIYAGKEFKTLGGLTVGTATTHYYASEEFKTKQETTKSFTCSPQEVISGGDFGQCTYCHLLLGLHYSSQVEFVASAFSYTIVQAFSFFEEIWREICADIKEGNLSSRITLPKMRKAVLALIRPNPSLASHIEEICLELETNLGWFGLISKLWPNAKFISSIMTGSMLPYLNKLRHYAGGLPLVSADYGSTESWIGVNVDPHLPPEDVSFAVIPTFSYFEFIPLYRRQNQSDICIDGDFVEDKPVPLSQVKLGQEYELVLTTFTGLYRYRLGDVVEVTSFHKGTPKLSFIYRRKLILTINIDKNTEKDLQRVVDKASQLLSRSTRAEVVDFTSHADVIARPGHYVIYWEIRGEADDKALEECCREMDTAFVDYGYVVSRRMNSIGPLELRVVERGTFGKVAERCVGKCGGLNQFKTPRCTTNSVMLDILNDSTIKRFRSSAYD
modifications: His-tag
notes: GH3-10 from Arabidopsis thaliana, His-tagged
- signal of molecular weight corresponding to N-acylamino acid ([1]; substrates L-Ala and Capric acid): +
- signal of molecular weight corresponding to N-acylamino acid ([1]; substrates L-Ala and Caproic acid): +
- signal of molecular weight corresponding to N-acylamino acid ([1]; substrates L-Ala and Caprylic acid): +
- signal of molecular weight corresponding to N-acylamino acid ([1]; substrates L-Ala and Lauric acid): +
- signal of molecular weight corresponding to N-acylamino acid ([1]; substrates L-Ala and Linoleic acid): −
- signal of molecular weight corresponding to N-acylamino acid ([1]; substrates L-Ala and Palmitic acid): −
- signal of molecular weight corresponding to N-acylamino acid ([1]; substrates L-Ala and myristic acid): +
- signal of molecular weight corresponding to N-acylamino acid ([1]; substrates L-Lys and Capric acid): +
- signal of molecular weight corresponding to N-acylamino acid ([1]; substrates L-Lys and Caproic acid): +
- signal of molecular weight corresponding to N-acylamino acid ([1]; substrates L-Lys and Caprylic acid): +
- signal of molecular weight corresponding to N-acylamino acid ([1]; substrates L-Lys and Lauric acid): +
- signal of molecular weight corresponding to N-acylamino acid ([1]; substrates L-Lys and Linoleic acid): −
- signal of molecular weight corresponding to N-acylamino acid ([1]; substrates L-Lys and Palmitic acid): +
- signal of molecular weight corresponding to N-acylamino acid ([1]; substrates L-Lys and myristic acid): +
- signal of molecular weight corresponding to N-caprinoyl compound ([2]; substrates Carnosine and sodium caprate): −
- signal of molecular weight corresponding to N-caprinoyl compound ([2]; substrates D-Ala and sodium caprate): +
- signal of molecular weight corresponding to N-caprinoyl compound ([2]; substrates D-Asp and sodium caprate): +
- signal of molecular weight corresponding to N-caprinoyl compound ([2]; substrates D-Cys and sodium caprate): +
- signal of molecular weight corresponding to N-caprinoyl compound ([2]; substrates D-Glu and sodium caprate): +
- signal of molecular weight corresponding to N-caprinoyl compound ([2]; substrates D-Ile and sodium caprate): −
- signal of molecular weight corresponding to N-caprinoyl compound ([2]; substrates D-Lys and sodium caprate): −
- signal of molecular weight corresponding to N-caprinoyl compound ([2]; substrates L-Asp-L-Phe and sodium caprate): −
- signal of molecular weight corresponding to N-caprinoyl compound ([2]; substrates L-Gly-L-Gly and sodium caprate): +
- signal of molecular weight corresponding to N-caprinoyl compound ([2]; substrates Sarcosine and sodium caprate): −
- signal of molecular weight corresponding to N-caprinoyl compound ([2]; substrates Taurine and sodium caprate): +
- signal of molecular weight corresponding to N-caprinoyl amino acid ([3]; substrates GABA and sodium caprate): +
- signal of molecular weight corresponding to N-caprinoyl amino acid ([3]; substrates Gly and sodium caprate): +
- signal of molecular weight corresponding to N-caprinoyl amino acid ([3]; substrates L-Ala and sodium caprate): +
- signal of molecular weight corresponding to N-caprinoyl amino acid ([3]; substrates L-Arg and sodium caprate): +
- signal of molecular weight corresponding to N-caprinoyl amino acid ([3]; substrates L-Asn and sodium caprate): +
- signal of molecular weight corresponding to N-caprinoyl amino acid ([3]; substrates L-Asp and sodium caprate): +
- signal of molecular weight corresponding to N-caprinoyl amino acid ([3]; substrates L-Cys and sodium caprate): −
- signal of molecular weight corresponding to N-caprinoyl amino acid ([3]; substrates L-Gln and sodium caprate): +
- signal of molecular weight corresponding to N-caprinoyl amino acid ([3]; substrates L-Glu and sodium caprate): −
- signal of molecular weight corresponding to N-caprinoyl amino acid ([3]; substrates L-His and sodium caprate): +
- signal of molecular weight corresponding to N-caprinoyl amino acid ([3]; substrates L-Ile and sodium caprate): +
- signal of molecular weight corresponding to N-caprinoyl amino acid ([3]; substrates L-Leu and sodium caprate): +
- signal of molecular weight corresponding to N-caprinoyl amino acid ([3]; substrates L-Lys and sodium caprate): +
- signal of molecular weight corresponding to N-caprinoyl amino acid ([3]; substrates L-Met and sodium caprate): +
- signal of molecular weight corresponding to N-caprinoyl amino acid ([3]; substrates L-Phe and sodium caprate): +
- signal of molecular weight corresponding to N-caprinoyl amino acid ([3]; substrates L-Pro and sodium caprate): +
- signal of molecular weight corresponding to N-caprinoyl amino acid ([3]; substrates L-Ser and sodium caprate): +
- signal of molecular weight corresponding to N-caprinoyl amino acid ([3]; substrates L-Thr and sodium caprate): +
- signal of molecular weight corresponding to N-caprinoyl amino acid ([3]; substrates L-Trp and sodium caprate): +
- signal of molecular weight corresponding to N-caprinoyl amino acid ([3]; substrates L-Tyr and sodium caprate): +
- signal of molecular weight corresponding to N-caprinoyl amino acid ([3]; substrates L-Val and sodium caprate): +
- signal of molecular weight corresponding to N-caprinoyl amino acid ([3]; substrates β-Ala and sodium caprate): +
